# Experimental data: patent US10428140B2, “Anti-EphA4 antibody” (EISAI R&D MANAGEMENT CO., LTD., priority 2015, dated 2019)
# T1: human EphB2 (Homo sapiens, UniProt P29323)
# T1 construct: a protein of the extracellular region of each human Eph receptor fused with the SEAP protein and the His tag; made in house; host or cells: Expi293F cells
# T1 sequence (P29323 19-543 limits assumed): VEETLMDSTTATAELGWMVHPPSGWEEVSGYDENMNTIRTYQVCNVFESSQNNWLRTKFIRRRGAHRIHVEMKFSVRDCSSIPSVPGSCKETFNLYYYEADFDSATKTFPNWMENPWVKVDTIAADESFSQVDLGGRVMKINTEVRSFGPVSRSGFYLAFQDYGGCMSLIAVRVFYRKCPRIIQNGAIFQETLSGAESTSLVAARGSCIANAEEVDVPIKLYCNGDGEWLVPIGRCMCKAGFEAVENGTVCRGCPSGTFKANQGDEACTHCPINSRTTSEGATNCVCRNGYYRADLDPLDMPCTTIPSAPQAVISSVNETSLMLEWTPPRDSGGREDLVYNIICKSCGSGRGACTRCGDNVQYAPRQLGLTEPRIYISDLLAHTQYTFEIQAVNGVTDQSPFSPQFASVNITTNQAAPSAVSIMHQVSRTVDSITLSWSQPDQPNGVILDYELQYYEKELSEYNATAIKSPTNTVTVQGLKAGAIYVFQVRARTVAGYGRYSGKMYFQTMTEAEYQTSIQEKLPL
# T2: human EphA3 (Homo sapiens, UniProt P29320)
# T2 construct: a protein of the extracellular region of each human Eph receptor fused with the SEAP protein and the His tag; made in house; host or cells: Expi293F cells (culture supernatant)
# T2 sequence (P29320 21-541 limits assumed): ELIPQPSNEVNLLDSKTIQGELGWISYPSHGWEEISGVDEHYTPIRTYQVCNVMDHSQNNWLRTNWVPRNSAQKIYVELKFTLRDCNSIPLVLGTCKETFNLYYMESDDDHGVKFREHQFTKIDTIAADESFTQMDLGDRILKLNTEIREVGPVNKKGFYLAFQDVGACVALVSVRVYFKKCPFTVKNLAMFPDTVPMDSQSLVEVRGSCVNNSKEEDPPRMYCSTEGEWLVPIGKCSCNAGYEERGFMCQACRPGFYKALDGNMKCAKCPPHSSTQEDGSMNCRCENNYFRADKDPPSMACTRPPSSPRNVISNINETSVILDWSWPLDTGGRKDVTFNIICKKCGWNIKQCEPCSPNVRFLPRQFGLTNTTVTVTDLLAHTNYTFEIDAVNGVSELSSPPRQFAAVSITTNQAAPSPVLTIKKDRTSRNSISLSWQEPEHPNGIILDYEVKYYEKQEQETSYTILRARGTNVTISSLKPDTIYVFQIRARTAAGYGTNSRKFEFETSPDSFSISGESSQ
# T3: human EphB3 (Homo sapiens, UniProt P54753)
# T3 construct: a protein of the extracellular region of each human Eph receptor fused with the SEAP protein and the His tag; made in house; host or cells: Expi293F cells
# T3 sequence (P54753 34-559 limits assumed): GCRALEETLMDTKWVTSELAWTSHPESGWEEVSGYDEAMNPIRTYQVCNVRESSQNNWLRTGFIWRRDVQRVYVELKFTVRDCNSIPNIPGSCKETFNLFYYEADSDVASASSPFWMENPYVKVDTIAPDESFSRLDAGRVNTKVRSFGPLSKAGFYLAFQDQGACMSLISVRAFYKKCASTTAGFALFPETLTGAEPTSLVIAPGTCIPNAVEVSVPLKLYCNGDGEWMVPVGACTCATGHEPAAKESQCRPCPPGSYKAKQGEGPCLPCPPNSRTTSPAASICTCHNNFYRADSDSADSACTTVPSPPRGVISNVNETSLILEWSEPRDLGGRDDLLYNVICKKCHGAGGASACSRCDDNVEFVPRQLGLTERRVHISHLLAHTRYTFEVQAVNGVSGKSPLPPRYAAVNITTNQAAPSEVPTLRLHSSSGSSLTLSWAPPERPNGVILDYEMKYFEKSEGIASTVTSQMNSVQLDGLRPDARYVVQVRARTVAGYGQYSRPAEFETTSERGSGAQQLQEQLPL
# What was measured:
# Assay in all cases: Selectivity ELISA of humanized antibodies for human Eph receptor
# Assay type in all cases: binding
# Details in all cases: coated protein 1 nM
# human EphB2 = biological target: T1, human EphB2
# Procedure, shortened: (§1)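 His-tagged SEAP fusions of each human Eph receptor extracellular region, from Expi293F supernatants, were captured at 1 nM on anti-His-coated wells. Humanized antibody was bound 1 h at room temperature, then detected with HRP […] IgG. TMB development was acid-stopped and read at 450 nm.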
# SEAP-His = SEAP-His (Homo sapiens, UniProt P05187)
# Procedure, shortened: as §1
# human EphA3 = biological target: T2, human EphA3
# Procedure, shortened: as §1
# human EphB3 = biological target: T3, human EphB3
# Procedure, shortened: as §1
# SEAP-His, sequence (P05187 23-511 limits assumed): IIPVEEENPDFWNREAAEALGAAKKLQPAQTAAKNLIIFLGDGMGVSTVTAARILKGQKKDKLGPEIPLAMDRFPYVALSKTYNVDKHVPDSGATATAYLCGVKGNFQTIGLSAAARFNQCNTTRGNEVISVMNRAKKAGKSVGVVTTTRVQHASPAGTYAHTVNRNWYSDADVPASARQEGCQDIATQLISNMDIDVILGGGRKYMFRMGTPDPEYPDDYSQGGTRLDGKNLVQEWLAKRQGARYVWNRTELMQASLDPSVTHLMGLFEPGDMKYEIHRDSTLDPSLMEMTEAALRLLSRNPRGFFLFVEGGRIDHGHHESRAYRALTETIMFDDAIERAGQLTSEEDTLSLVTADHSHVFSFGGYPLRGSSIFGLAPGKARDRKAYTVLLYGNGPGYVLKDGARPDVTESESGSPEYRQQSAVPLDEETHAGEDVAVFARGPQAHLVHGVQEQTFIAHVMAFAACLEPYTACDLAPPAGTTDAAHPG
"hEphB2-SEAP-: absorbance at 450 nm, percentage with respect to hEphA4-SEAP-His as 100% (human EphB2) [%]","SEAP-His: absorbance at 450 nm, percentage with respect to hEphA4-SEAP-His as 100% (SEAP-His) [%]","hEphA3-SEAP-: absorbance at 450 nm, percentage with respect to hEphA4-SEAP-His as 100% (human EphA3) [%]","hEphB3-SEAP-: absorbance at 450 nm, percentage with respect to hEphA4-SEAP-His as 100% (human EphB3) [%]",Molecule
7.0,6.7,6.8,6.7,"94 (antibody, V domains shown, constant regions without entry; synthetic humanized antibody light chain variable region sequence; synthetic humanized antibody heavy chain variable region sequence) VL: EIVMTQSPATLSVSPGERATLSCRASENIYRNLAWYQQKPGQSPRLLIYAATNLADGIPARFSGSGSGTEYTLTISSLQSEDFAVYYCQHFWGTPWTFGQGTKVEIK VH: QVQLVQSGSELKKPGASVKVSCKASGYTFTDYSMHWVRQAPGQGLKWMGWINTETGEPTYAQGFTGRFVFSLDTSVSTAYLQISSLKAEDTAVYYCARIPLYYYGSRYWYFDVWGQGTTVTVSS"
5.3,5.4,5.5,5.4,"140 (antibody, V domains shown, synthetic humanized antibody heavy chain variable region sequence; synthetic humanized antibody light chain variable region sequence) VH: QVQLVQSGSELKKPGASVKVSCKASGYTFTDYSMHWVRQAPGQGLKWMGWINTETGEPTYAQGFTGRFVFSLDTSVSTAYLQISSLKAEDTAVYYCARIPLYYYGSRYWYFDVWGQGTTVTVSS VL: DIQMTQSPSSLSASVGDRVTITCRASENIYRNLAWYQQKPGKAPKLLVYAATNLADGVPSRFSGSGSGTDYTLTISSLQPEDFATYYCQHFWGTPWTFGQGTKVEIK"
5.5,5.5,5.5,5.6,"96 (antibody, V domains shown, constant regions without entry; synthetic humanized antibody light chain variable region sequence; synthetic humanized antibody heavy chain variable region sequence) VL: EIVMTQSPATLSVSPGERATLSCRASENIYRNLAWYQQKPGQSPRLLIYAATNLADGIPARFSGSGSGTEYTLTISSLQSEDFAVYYCQHFWGTPWTFGQGTKVEIK VH: QVQLVQSGSELKKPGASVKVSCKASGYTFTDYSMHWVRQAPGQGLKWMGWINTETGEPTYADDFKGRFVFSLDTSVSTAYLQISSLKAEDTAVYYCARIPLYYYGSRYWYFDVWGQGTTVTVSS"
5.7,5.7,5.9,5.6,"139 (antibody, synthetic humanized antibody heavy chain variable region sequence; synthetic humanized antibody light chain variable region sequence; synthetic antibody constant region sequence) VH: QVQLVQSGSELKKPGASVKVSCKASGYTFTDYSMHWVRQAPGQGLEWMGWINTETGEPTYAQGFTGRFVFSLDTSVSTAYLQISSLKAEDTAVYYCARIPLYYYGSRYWYFDVWGQGTTVTVSS VL: DIQMTQSPSSLSASVGDRVTITCRASENIYRNLAWYQQKPGKAPKLLVYAATNLADGVPSRFSGSGSGTDYTLTISSLQPEDFATYYCQHFWGTPWTFGQGTKVEIK ASTKGPSVFPLAPSSRSTSESTAALGCLVKDYFPEPVTVSWNSGALTSGVHTFPAVLQSSGLYSLSSVVTVPSSNFGTQTYTCNVDHKPSNTKVDKTVERKSCVECPPCPAPPAAAPSVFLFPPKPKDTLMISRTPEVTCVVVDVSHEDPEVQFNWYVDGVEVHNAKTKPREEQFNSTFRVVSVLTVVHQDWLNGKEYKCKVSNKGLPAPIEKTISKTKGQPREPQVYTLPPSREEMTKNQVSLTCLVKGFYPSDIAVEWESNGQPENNYKTTPPMLDSDGSFFLYSKLTVDKSRWQQGNVFSCSVMHEALHNHYTQKSLSLSPG"
4.7,4.4,4.8,4.6,"95 (antibody, V domains shown, constant regions without entry; synthetic humanized antibody light chain variable region sequence; synthetic humanized antibody heavy chain variable region sequence) VL: EIVMTQSPATLSVSPGERATLSCRASENIYRNLAWYQQKPGQSPRLLIYAATNLADGIPARFSGSGSGTEYTLTISSLQSEDFAVYYCQHFWGTPWTFGQGTKVEIK VH: QVQLVQSGSELKKPGASVKVSCKASGYTFTDYSMHWVRQAPGQGLEWMGWINTETGEPTYADDFKGRFVFSLDTSVSTAYLQISSLKAEDTAVYYCARIPLYYYGSRYWYFDVWGQGTTVTVSS"
5.5,5.6,5.6,5.5,"71 (antibody, V domains shown, synthetic humanized antibody heavy chain variable region sequence; synthetic humanized antibody light chain variable region sequence) VH: QIQLVQSGSELKKPGASVKVSCKASGYTFTDYSMHWVRQAPGQGLKWMGWINTETGEPTYAQGFTGRFVFSLDTSVSTAYLQISSLKAEDTAVYYCARIPLYYYGSRYWYFDVWGQGTTVTVSS VL: EIVMTQSPATLSVSPGERATLSCRASENIYRNLAWYQQKPGQSPRLLIYAATNLADGIPARFSGSGSGTEYTLTISSLQSEDFAVYYCQHFWGTPWTFGQGTKVEIK"
5.6,5.8,5.8,5.8,"73 (antibody, V domains shown, synthetic humanized antibody heavy chain variable region sequence; synthetic humanized antibody light chain variable region sequence) VH: QIQLVQSGSELKKPGASVKVSCKASGYTFTDYSMHWVRQAPGQGLKWMGWINTETGEPTYADDFKGRFVFSLDTSVSTAYLQISSLKAEDTAVYYCARIPLYYYGSRYWYFDVWGQGTTVTVSS VL: EIVMTQSPATLSVSPGERATLSCRASENIYRNLAWYQQKPGQSPRLLIYAATNLADGIPARFSGSGSGTEYTLTISSLQSEDFAVYYCQHFWGTPWTFGQGTKVEIK"
